Test results reported in article PMC10683472, “Deep Learning-Driven Library Design for the De Novo Discovery of Bioactive Thiopeptides” (ACS Central Science, 2023).

Biological target: T1, TLR10 (Homo sapiens, UniProt Q9BXR5)
T1 sequence (Q9BXR5 20-576): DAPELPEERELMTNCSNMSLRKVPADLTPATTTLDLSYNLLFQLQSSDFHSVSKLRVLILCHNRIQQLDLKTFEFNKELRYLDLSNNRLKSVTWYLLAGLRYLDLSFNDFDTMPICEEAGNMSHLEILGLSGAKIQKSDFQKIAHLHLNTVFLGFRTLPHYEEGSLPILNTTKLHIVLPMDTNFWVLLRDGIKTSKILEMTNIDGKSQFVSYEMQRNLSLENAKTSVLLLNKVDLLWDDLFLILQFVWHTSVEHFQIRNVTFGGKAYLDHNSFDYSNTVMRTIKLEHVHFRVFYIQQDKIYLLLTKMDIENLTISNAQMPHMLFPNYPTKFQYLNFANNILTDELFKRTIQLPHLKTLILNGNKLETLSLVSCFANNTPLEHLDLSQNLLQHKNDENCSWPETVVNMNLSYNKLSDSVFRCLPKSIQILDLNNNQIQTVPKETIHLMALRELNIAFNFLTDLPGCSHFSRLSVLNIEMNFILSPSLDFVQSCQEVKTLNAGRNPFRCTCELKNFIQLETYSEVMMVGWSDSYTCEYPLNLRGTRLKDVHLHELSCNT
Assay: mRNA display affinity selection against TLR10, NGS abundance
Assay type: binding
Design: Chimera protein (extracellular domain, amino acid 20-576;); Fc (chimera); purchased R&D system #6619-TR-050
Conditions: Top100 selection hits, NGS

Library fraction (TLR10 selection pulldown (+))	Raw reads (TLR10 selection pulldown (+))	Library fraction (TLR10 selection pulldown (-))	Raw reads (TLR10 selection pulldown (-))	Sequence
0.00027	26	–	–	IGKTYVKSC
0.00019	19	–	–	MMSRGMRWVL
–	–	0.00147	175	IGRVCIRSS
–	–	0.00044	52	SMYFESLNKLAV
0.00034	33	–	–	STKNQYGGWSPA
0.00031	30	–	–	SIETTNMVLL
0.168	16419	0.008	995	SRTNRFGGHMAS
0.00365	356	0.003	375	IGSVFIKSS
0.00028	27	–	–	SLEFPHLVIH
–	–	0.00055	66	AVEFSNAVVM
0.00031	30	–	–	RMSLNTRYIAF
–	–	0.00153	182	AIYNRYGGNIAS
–	–	0.00043	51	SRIIYMNQSIRG
–	–	0.0006	71	SFTFALQRRIAY
0.00557	543	0.00067	80	RNPYSGNIAI
–	–	0.006	714	SVVVWHAQPIMG
0.0007	68	–	–	FVLNGRYLVM
0.00017	17	–	–	CLGISNRIVVV
–	–	0.00283	338	RILFARQNLAAF
–	–	0.00144	172	SICFPLQHKCAY
0.00028	27	–	–	ICFVYVRSS
–	–	0.00053	63	CIIFVRQNKCAF
–	–	0.00047	56	ANYHGNVPWSC
–	–	0.00117	139	AEIHAWGLRI
–	–	0.00089	106	IGKTYVASS

Library fraction (TLR10 selection pulldown (+))	Raw reads (TLR10 selection pulldown (+))	Library fraction (TLR10 selection pulldown (-))	Raw reads (TLR10 selection pulldown (-))	Sequence
0.00071	69	0.00054	64	SMCVWARQKIVG
0.00029	28	–	–	SVMNVFGGNAAT
0.00258	251	0.00364	434	VGRVYIKSS
0.00074	72	0.00141	168	RIETARLVIL
–	–	0.00222	265	SLELKHIVFH
–	–	0.00131	156	SQFNHAMGWYVN
0.00033	32	–	–	VGYVLVKSS
0.00026	25	–	–	GYAVGKLLIRV
0.143	13980	0.238	28345	TNPYGGNVGW
–	–	0.001	117	SMHYRFLCKIAF
0.00224	218	0.00272	324	GCLHGNVPVYY
0.045	4431	0.005	582	SNSNRYGGLITS
0.00053	52	0.004	470	CMIFHTQLKIAF
0.00211	206	–	–	AKLIYRTQGIMG
0.023	2215	0.018	2188	ALLIKQTNMLYC
–	–	0.00058	69	TMCFTFSKMVAF
0.00114	111	–	–	SIMIYCNQKIRG
–	–	0.00088	105	TFLGGNVRAWI
0.00071	69	–	–	SIYFEKAEKVAF
0.00058	57	0.00054	64	GLVINKRWYVHL
0.00022	21	–	–	TMHFSNQRKLVF
–	–	0.00125	149	SHYFAFQKKLAF
0.015	1427	0.00949	1132	TNPYGGNITM
–	–	0.00046	55	SSTVWKLQTICG
0.00032	31	–	–	VQLHRWGLRM

Library fraction (TLR10 selection pulldown (+))	Raw reads (TLR10 selection pulldown (+))	Library fraction (TLR10 selection pulldown (-))	Raw reads (TLR10 selection pulldown (-))	Sequence
–	–	0.0006	72	RIETRCYVLH
–	–	0.00054	65	SVDFGQVVIH
0.00041	40	–	–	SMEFVKIPLVIH
–	–	0.00284	339	IGRLFVKSS
0.012	1142	0.008	919	STIVFTFQCIKG
0.00018	18	–	–	AIYYSRLNKVAF
0.00018	18	–	–	STIVFKHQQISG
0.005	482	0.00118	141	SVPFPLQRKLVF
0.00023	22	–	–	MIRMDRLRVL
0.00024	23	–	–	WCGATLYSSIS
0.00746	727	0.026	3115	SIWFPLQRKIAA
0.00019	19	–	–	AFQRRDDFRWVI
–	–	0.00142	169	CMSFYLQRKIAI
0.00022	21	–	–	CLPFPLQMRIAY
–	–	0.00152	181	CVHFCWQRKLAY
0.00066	64	–	–	TIKFPRLQMLAI
0.004	389	0.00189	226	SIMFALQQKLLF
0.008	777	0.00125	149	SRTIYRCQSIRG
0.00022	21	–	–	SSYVYHKQRIRG
0.0005	49	–	–	SNVIYARQHIIG
–	–	0.00092	110	IGKVYVHSS
–	–	0.040	4812	SMLFRLANKIAF
0.00075	73	–	–	LGNVYIRSS
0.00468	456	0.002	241	TMQFPLQRRMAI

Sequence	Library fraction (TLR10 selection pulldown (+))	Raw reads (TLR10 selection pulldown (+))	Library fraction (TLR10 selection pulldown (-))	Raw reads (TLR10 selection pulldown (-))
ASFVIGQLLVN	–	–	0.00055	66
ALRFPHLGMMAF	0.00026	25	–	–
